Patent US9951123B2, “Anti-LPS O11 antibody” (priority 2013, dated 2018)
Values after ≈ are worked out from the molar mass of the structure shown.

What was measured:
[1] = system: Pseudomonas aeruginosa clinical isolates No. 12 and No. 31; assay: Minimum inhibitory concentration of LVFX against clinical isolates; assay type: cell-based
[2] = system: Pseudomonas aeruginosa ATCC 29260; assay: Opsonophagocytic killing activity against Pseudomonas aeruginosa ATCC 29260; assay type: cell-based; settings: antibody culture supernatant samples
Experimental: As a buffer for measurement, 0.1% gelatin/1% FBS/Hank's balanced salt solution (opsonization buffer) was prepared. HL60 as effector cells were cultured in 10% FBS-containing RPMI 1640 (Invitrogen) supplemented with 0.8% N,N-dimethylformamide for 5 or 6 days to prepare neutrophil-like, differentiated HL60 in an opsonization buffer. As the target bacteria, Pseudomonas aeruginosa ATCC 29260 cultured on MHA was prepared by suspending it in the opsonization buffer. As a complement, Baby Rabbit Serum (Cederlane) was prepared by dissolving it with ice-cold distilled water. Bacterial suspension (final concentration of 2×10^4 cells/ml) was mixed with antibody culture supernatant or purified antibody, allowed to stand at 4° C. for 30 minutes, and the prepared neutrophil-like, differentiated HL60 cells (final concentration of 4×10^6 cells/ml) and a complement (final concentration 10%) were added thereto, followed by incubation with gentle agitation at 37° C. for 1 hour under 5% CO2. After the incubation, each sample was spread on MHA, and colonies were counted on the next day.
Opsonophagocytic killing activity of each of cNo.76, c#1G5M, c#1G5, c#4C13KM, c#4C13, Meiji 1640, Meiji 1656, and 1BO11 hIgG1 against Pseudomonas aeruginosa ATCC 29260 was measured in accordance with the method of 1)-3-2. The opsonophagocytic killing activity was expressed in terms of 50% minimum growth inhibitory concentration.
In accordance with the method of 1)-3-2, the opsonophagocytic killing activities of h#1G5-H2/L2, h#1G5-H3/L3, h#4C13K-H2/L2, and h#4C13k-H3/L3 against ATCC 29260 were measured, and then compared to those of c#1G5 and c#4C13. The opsonophagocytic killing activity was expressed in terms of 50% minimum growth inhibitory concentration.

Work on `C[C@H]1COc2c(N3CCN(C)CC3)c(F)cc3c(=O)c(C(=O)O)cn1c23` [LVFX, levofloxacin] yielded an MIC ([1]; No. 12 strain) greater than 128 mg/L and an MIC ([1]; strain No. 31) of 32 mg/L (≈ 88.6 µM).

B1: No.76: mouse monoclonal anti-LPS O11 antibody prepared using pJON mIgG2a and pJON mIgκ; variable regions SEQ ID NO: 8 and 4 (antibody, V domains shown)
VH: MGWSCIILFLVAAATGVHSQVQLQQPGAELVKPGASVNLSCKSSGYTFTNYWINWVKQRPGQGLEWIGDIYPGTSTTNYNEKFKNKATLTVDTSSSTAYMQLSSLTSDDSAVYYCTRIYYDYDGYYFDYWGQGTTLTVSS
VL: MESQTLVFISILLWLYGADGNIVMTQSPKSMSMSVGERVTLSCKASENVGTSVSWYQEKPEQSPKLLIFGASNRYTGVPDRFTGSGSATDFTLTISSVQAEDLADYHCGQSYSYPYTFGGRTKLEIKRA
modifications: Heavy chain variable of No.76; Light chain variable of No.76
In the case of B1, the “opsonophagocytic killing activity in screening” value [2] is reported as “strong opsonophagocytic killing activity”.

B2: #4C12: anti-LPS O11 monoclonal antibody prepared using pJON mIgG2a-hIgG1 and pJON mIgκ; variable regions SEQ ID NO: 24 and 20 (antibody, V domains shown)
VH: MGWSCIILFLVAAATGVQSQVQLQQPGAELVKPGASVKLSCKASGYTFTTYWINWMQQRPGQGLEWIGNIYPGTRSSNYNEKFKNKATLTVDTSSSTAYMQLNSLTSDDSAVYYCTRVYYDHVGYYFDYWGQGTTLTVSS
VL: MESQTLVFISILLWLYGADGNIVMTQSPKSMSMSVGERVTLSCKASENVGVSVSWYQQKPEQSPKLLIYGASNRCTGVPDRFTGSRSATDFTLTVSNVQAEDLADYHCGQSYSYPYTFGGGTRLEIKRA
modifications: Heavy chain variable of #4C12; Light chain variable of #4C12
With B2 the “opsonophagocytic killing activity in screening” value [2] was “strong opsonophagocytic killing activity”.

B3: #1G5: anti-LPS O11 monoclonal antibody prepared using pJON mIgG2a-hIgG1 and pJON mIgκ; variable regions SEQ ID NO: 16 and 12 (antibody, V domains shown)
VH: MGWSCIILFLVAAATGVHSQVQLQQPGAELVKPGASVKLSCKASGYTFTSYWINWVKQRPGQGLEWIGNIYPGSSSINYNEKFKSKATLTVDTSSSTAYMQLSSLTSDDSAVYYCSRTIYNYGSSGYNYAMDYWGQGTSVIVSS
VL: MESQTLVFISILLWLYGSDGNIVMTQSPKSMSMSVGERVTLSCKASENVGNSVSWYQQKAEQSPKPLIYGASNRYTGVPDRFTGSGSATDFTLTISSVQAEDLADYHCGQSYSYPYTFGGGTKLEIKRA
modifications: Heavy chain variable of #1G5; Light chain variable of #1G5
B3 was tested, and the “opsonophagocytic killing activity in screening” value [2] was “strong opsonophagocytic killing activity”.
